Data: patent US7888090B2, “Mutants of O6-alkylguanine-DNA alkyltransferase” (Ecole Polytechnique Federale de Lausanne, priority 2004, dated 2011)

What was measured:
[1] = Solubility in vitro after overnight incubation; format: physicochemical; conditions: compared to wild type AGT
Protocol: The in vitro solubility of wild type AGT and the AGT mutant is measured by determining the amount of protein that remains in the soluble fraction after overnight incubation of purified samples at 4° C. or up to 37° C. at one or several concentrations established in a suitable buffer (e.g. 100 mM NaCl, 20 mM Tris, pH 8.0, 20% glycerol, 1 mM DTT).
The solubility of AGTM or an AGTM fusion protein in vitro is measured by determining the amount of protein that remains in the soluble fraction after overnight incubation of purified samples at 4 or up to 37° C. at one or several concentrations established in a suitable buffer (e.g. 100 mM NaCl, 20 mM Tris, pH 8.0, 20% Glycerol), and it is compared to that of wild type AGT or to known AGT mutants such as “PGEG-hAGT” (Juillerat et al., Chem Biol 10:313-317, 2003).

[2] = Periplasmic expression / stability under oxidizing conditions; parameters: species or system E. coli
Protocol: The activities towards AGT substrates are measured after purification without addition of reducing agents such as dithiothreitol or beta-mercaptoethanol. Alternatively, the activities of mutant AGT and wild type human are compared after their export into cellular compartments with oxidising redox potential (e.g. the periplasm of E. coli due to their fusion to appropriate signal sequences. Activity towards AGT substrates under reducing and oxidising conditions is compared by performing the reactions in the presence or absence of reducing agents such as dithiothreitol or beta-mercaptoethanol.
The mutant AGT gene of Example 1 is amplified and cloned as described in Example 1 with the oligonucleotides SEQ ID NO:3, SEQ ID NO:10 and SEQ ID NO:4, SEQ ID NO:9 causing the further mutation Cys62Ala in the gene upon their incorporation by PCR. Protein expression, purification and determination of yield is carried out as described in Example 1. The mutant gene is PCR amplified with the primers SEQ ID NO:11, SEQ ID NO:12 that contain SfiI restriction sites to subclone the gene in fusion to the g3 protein of filamentous phage in the vector pAK100 (Krebber et al., J Immunol Methods 201:35-55, 1997). […] The supernatant is directly subjected to quantification of protein yield via SDS-PAGE and activity assays as described in Example 1.
Stability under oxidizing conditions: The mutant gene is PCR amplified with the primers SEQ ID NO:11 and SEQ ID NO:28 to subclone the gene into pAK100, as described in Example 2. […] To compare the reactivity of […] (Juillerat et al., Chem Biol 10:313-317, 2003) and the mutant, samples are incubated with 1 µM BG-Bt for 50 min, quenched with SDS-Laemmli buffer and analyzed by western blotting using neutravidin peroxidase conjugate (Pierce) or a monoclonal mouse anti-FLAG IgG antibody (M2, Sigma) and a secondary anti-mouse-IgG::HRP conjugate, and Renaissance reagent plus (NEN). […] The anti-FLAG IgG antibody is used to estimate the total amount of soluble AGT protein, whereas neutravidin quantifies the reactive portion of it. […]

[3] = Reaction of two AGT variants in one sample with CPTG and BG-Bt; format: biochemical; conditions: CPTG and BG-Bt both at 5 μM, 30 minutes
Protocol: FIG. 2: Western blot of the reaction of wild type hAGT (GST-hAGT fusion protein) and AGTM with the two substrates N^9-cyclopentyl-O^6-bromophenyl-guanine (CPTG) and biotinylated O^6-benzylguanine (BG-Bt, substance 3a of Juillerat et al. 2003) as described in Example 7. BG-Bt is present in all samples at 5 μM. Detection with neutravidin-peroxidase conjugate and luminescent peroxidase substrate detecting any AGT reacted with BG-Bt. Even under simultaneous incubation with identical concentrations of CPTG and BG-Bt only about 5% of GST-hAGT reacts with substrate BG-Bt.
Within the experiment two tags with different size for the two AGT proteins are used: The His-tagged AGTM (˜20 kDa) and GST-hAGT (cloned and prepared as described in Example 1, but starting with the wild type hAGT gene, ˜48 kDa) are diluted to 0.2 μM and 1.2 μM final concentration, respectively, in reaction buffer containing 50 mM HEPES, 1 mM DTT, 200 mg/mL BSA (pH 7.3). The sample is incubated with a mixture of substrates N^9-cyclopentyl-O^6-bromophenyl-guanine (CPTG; 0, 5 and 10 μM final concentrations) and biotinylated O^6-benzylguanine (BG-Bt, 5 μM final concentration) for 30 minutes. The reaction is quenched by addition of SDS-Laemmli buffer and subjected to Western blotting analysis (Example 1). As the two AGT variants have different masses, the two proteins can be separated on an acrylamide gel and analyzed independently. […] At the same concentration (both substrates at 5 μM final concentration), 95% of GST-hAGT reacts with CPTG, versus only 5% of His-tagged AGTM.

B1: AGTM: AGT mutant Cys62Ala, Gln115Ser, Gln116His, Lys125Ala, Ala127Thr, Arg128Ala, Gly131Lys, Gly132Thr, Met134Leu, Arg135Ser, Cys150Asn, Ser151Ile, Ser152Asn, Asn157Gly, Ser159Glu, truncated after … (protein, UniProt P16455 1-207, looked up, variant C62A Q115S Q116H K125A A127T R128A G131K G132T M134L R135S C150N S151I S152N N157G S159E del183-207)
Methylated-DNA--protein-cystei …: MDKDCEMKRTTLDSPLGKLELSGCEQGLHEIKLLGKGTSAADAVEVPAPAAVLGGPEPLMQATAWLNAYFHQPEAIEEFPVPALHHPVFQQESFTRQVLWKLLKVVKFGEVISYSHLAALAGNPAATAAVKTALSGNPVPILIPCHRVVNINGAVGGYEGGLAVKEWLLAHEGHRLGKPGLG
modifications: His tag
With B1 the solubility in vitro [1] was “at least fourfold increased”, the sensitivity to oxidation [2] was “reduced sensitivity to oxidation” and the “fraction of protein reacting with CPTG” value [3] was 5%.
